Experimental data published in patent US20240392013A1, “IL1RAP ANTIBODIES AND USES THEREOF” (STELEXIS THERAPEUTICS, LLC, priority 2021, published 2024).

Experiments:
hIL1RAP = biological target: T1, hIL1RAP (Homo sapiens, UniProt Q9NPH3); experiment: Kinetics of IL1RAP mAbs by Octet, human IL1RAP; format: binding; set-up: extracellular domain His-tagged, Cat #10121-H08H; His; purchased Sino Biological lot MB08MA1301 (catalogue number not given)
T1 sequence (Q9NPH3 21-367 limits assumed): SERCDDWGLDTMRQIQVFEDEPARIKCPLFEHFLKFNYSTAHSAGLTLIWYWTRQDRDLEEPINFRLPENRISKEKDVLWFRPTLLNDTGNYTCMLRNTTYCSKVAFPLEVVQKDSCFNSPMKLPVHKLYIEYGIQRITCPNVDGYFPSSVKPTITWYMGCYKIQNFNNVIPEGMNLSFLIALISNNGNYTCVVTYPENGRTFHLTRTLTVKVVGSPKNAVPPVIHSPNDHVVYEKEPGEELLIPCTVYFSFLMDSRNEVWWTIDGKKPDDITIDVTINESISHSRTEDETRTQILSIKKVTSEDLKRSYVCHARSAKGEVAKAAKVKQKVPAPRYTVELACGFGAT
Description: (§1) Antibodies were diluted in kinetics buffer (0.1% BSA, 0.02% Tween-20 and 0.05% NaN3 in PBS) and loaded onto 16 channel anti-mouse IgG Fc capture sensors (AMC, Cat #2001073; Sartorius, Göttingen, Germany). Human, huIL1RAP-His (Sino Biological, lot: MB08MA1301), and monkey, cyIL1RAP-His (Lake Pharma, NY, USA; lot:16205819371) proteins were titrated starting from the highest concentration of 100 nM and followed by 50 nM and 25 nM. Purified antibodies were loaded at 5 μg/ml in kinetics buffer. The experimental parameters selected to determine the kinetic constants were Baseline for 60 s, Loading of antibody to sensor for 180 s, Association of analyte to antibody for 120 s, Dissociation for 1200 s and Regeneration in 10 mM Glycine pH 1.7 for 4×30 s.
(§2) Regeneration cycle tracking was selected for 12 cycles. Binding to human and cynomolgus IL1RAP was measured and KD (M) kinetics were calculated. Also, the disassociation rate (Kdis) (1/s) and association rate (Kon) (1/Ms) kinetics were calculated (data not shown).

[1] = tested on: patient-derived AML samples; experiment: Cell viability of patient-derived AML samples, CellTiter-Glo; format: cell-based, human; conditions: 15 patient-derived AML samples; 0.1-100 nM, 6 days
Description: Primary patient-derived AML cells collected using leukapheresis or peripheral blood draw were selected based on expression levels of IL1RAP, IL1R1 and IL1RL1. On study day 0, cell viability was calculated, and cells were seeded at a density of 20,000 viable cells/well in 96-well plates. Cells were treated on Day 0 with IL1RAP monoclonal antibodies at a concentration of 100 nM followed by 5-fold serial dilutions. Cytarabine treatment (5 μM) was used as a positive control. Plates were kept at 37° C./5% CO2 in humified incubator and media was not changed during the duration of the assay. On Day 6, plates were removed from incubator and equilibrated to room temperature for up to 30 minutes. Then CellTiter-Glo was added to wells (100 μl) and plates were mixed for 2 minutes on plate rocker, followed by 10 minutes incubation at room temperature. Luminescent signal was recorded using Tecan plate reader and IC50s were calculated.

[2] = tested on: IL1-induced NFκB activity; experiment: HEK-BlueIL1β NFκB Reporter Assay; format: cell-based; conditions: nM range, read-out: IC50, inhibition of IL1-induced NFκB activity
Description: The HEK-Blue IL1β (Invivogen, Cat #hkb-il1b) cell line was used to monitor NFκB activity upon stimulation with IL1β cytokine. In this cell line the secreted embryonic alkaline phosphatase reporter gene (SEAP) is inducibly expressed under the control of IFN-β minimal promoter fused to NFκB/AP-1. Specificity to IL1β cytokine was achieved by blockage of TNF-α response. The cells were maintained in the presence of hygromycin (200 μg/ml) and zeocin (100 μg/ml).
For the functional assay, cells were plated at a density of 5×10^4 cells/well in 96-well plates. Cells were treated with each antibody at the highest concentration of 200 μg/ml followed by seven serial 1:3 dilutions and incubated for 45 minutes at 37° C./5% CO2 in humified incubator. Cells were then stimulated with IL1β ([…]) and incubated overnight at 37° C./5% CO2 in humified incubator. Every treatment was conducted in triplicates. Following, supernatants from each well were mixed with Quanti-Blue substrate (Invivogen, CA USA; Cat #rep-qb1) according to manufacturer's recommendations and secreted SEAP was measured using spectrophotometer at 650 nm.

cyIL1RAP = experiment: Kinetics of IL1RAP mAbs by Octet, cynomolgus IL1RAP; format: binding
Description: as §1, §2

[3] = tested on: IL33-induced NFκB activity; experiment: HEK-BlueIL33 NFκB Reporter Assay; format: cell-based, human; conditions: nM range, read-out: IC50, inhibition of IL33-induced NFκB activity
From the text: HEK-Blue IL33 (Invivogen, Cat #hkb-hil33) cell line was used to monitor NFκB activity upon stimulation with IL33 cytokine. The secreted embryonic alkaline phosphatase reporter gene (SEAP) is inducible expressed under the control of IFN-β minimal promoter fused to NFκB/AP-1. HEK-BlueIL33 cells were also generated upon stable transfection with human IL1RL1 (ST2) gene. Specificity to IL33 cytokine was achieved by blockage of TNF-α and IL1 response. Cells are maintained in the presence of hygromycin (200 μg/ml), zeocin (100 μg/ml) and blasticidin (10 μg/ml).
For the functional assay, cells were plated at a density of 5×10^4 cells/well in 96-well plates. Cells were treated with each antibody at the highest concentration of 200 μg/ml followed by seven serial 1:3 dilutions and incubated for 45 minutes at 37° C./5% CO^2 in humified incubator. Cells were then stimulated with IL33 (12 μM) and incubated overnight at 37° C./5% CO2 in humified incubator. Every treatment was conducted in triplicates. Following, supernatants from each well were mixed with Quanti-Blue substrate (Invivogen, Cat #rep-qb1) according to manufacturer's recommendations and secreted SEAP was measured using spectrophotometer at 650 nm.

Molecule	hIL1RAP kdis(1/s) (hIL1RAP)	hIL1RAP kon(1/Ms) (hIL1RAP)	Inhibition of viability [1]	IC50 [2]	cyIL1RAP kdis(1/s) (cyIL1RAP)	cyIL1RAP kon(1/Ms) (cyIL1RAP)	IC50 [3]
74804_05B24A: anti-IL1RAP mAb; VH SEQ ID NO:10, VL SEQ ID NO:26, κ light chain (antibody, V domains shown, 74804_05B24A VH; 74804_05B24A VL) VH: EVQLVDSGGGLVKPGGSLRLSCAATGFTFSNVWMSWVRQGSGKGLEWVGRIKSKTDGGTIDYAAPVKGRFTISRDDPKNTLYLQMNSLKTEDTAVYYCTTGELLGFDYWGQGTLVTVSS VL: DIVMTQSPLSLPVTPGEPASISCRSGQSLLHNNGFNCLAWYLQKPGQSPQLLIYLGSNRASGVPDRFSGSGSGTDFTLKISRVEAEDVGVFYCMQTLQTPITFGQGTRLEIK	0.000491 s⁻¹	294400 M⁻¹ s⁻¹	inhibition of viability of patient-derived AML samples	0.446 nM	0.000563 s⁻¹	267900 M⁻¹ s⁻¹	2.72 nM
74804_27I24A: anti-IL1RAP mAb; VH SEQ ID NO:13, VL SEQ ID NO:29, λ light chain (antibody, V domains shown, 74804_27I24A VH; 74804_27I24A VL) VH: EVQLVESGGGLVKPGGSLRLSCAASGFTFITYSMNWVRQAPGKGLEWVSSISSISSYIYYADSVKGRFTISRDNAKNSLYLQMDSLRAEDSAVYYCAREGIVGPTGYFDSWGQGTLVTVSS VL: QSVLTQPPSVSAAPGQKVTISCSGSSSNIGNHYVSWYQQLPGTAPKLLIYDNNKRPSGIPDRFSGSKSGTSATLGITGLQTGDEADYYCGTWDSRLSAYWVFGGGTKLTVL	0.000747 s⁻¹	350400 M⁻¹ s⁻¹	inhibition of viability of patient-derived AML samples	1.96 nM	0.001071 s⁻¹	379500 M⁻¹ s⁻¹	8.31 nM
74804_07K10A: anti-IL1RAP mAb; VH SEQ ID NO:5, VL SEQ ID NO:22, κ light chain (antibody, V domains shown, 74804_07K10A VH; 74804_07K10A VL, 74804_29D13A VL and 74804_43F04A VL) VH: QVQLLQSGAEVKKPGSSVKVSCRASGGTFSIYAIDWVRQAPGQGLEWMGGIIPISGTENSAQNFQDRITITADKSTNTAYMELSSLRSEDTAVYYCARNGATSDAFDIWGQGTMVTVSS VL: EIVLTQSPGTLSLSPGERATLSCRASLSVSSNYLAWFQQRPGQAPRLLIYGVSRRATGIPDRFSGSGSGTDFTLTISRLEPEDFAVYYCQQYGSSPLTFGGGTKVEIK	0.000234 s⁻¹	392100 M⁻¹ s⁻¹		3.19 nM	0.000283 s⁻¹	376800 M⁻¹ s⁻¹	6.62 nM
74804_29D13A: anti-IL1RAP mAb; VH SEQ ID NO:6, VL SEQ ID NO:22, κ light chain (antibody, V domains shown, 74804_12A21B VH and 74804_29D13A VH; 74804_07K10A VL, 74804_29D13A VL and 74804_43F04A VL) VH: QVQLLQSGAEVKKPGSSVKVSCKASGGTFSIYAIDWVRQAPGQGLEWMGGIIPIFGTANSAQKFQGRVTITADKSTSTAYMELSSLRSEDTAVYYCARNGATSDAFDMWGQGTMVTVSS VL: EIVLTQSPGTLSLSPGERATLSCRASLSVSSNYLAWFQQRPGQAPRLLIYGVSRRATGIPDRFSGSGSGTDFTLTISRLEPEDFAVYYCQQYGSSPLTFGGGTKVEIK	0.000361 s⁻¹	336100 M⁻¹ s⁻¹		1.85 nM	0.00065 s⁻¹	329600 M⁻¹ s⁻¹	8.75 nM
74804_51C10A: anti-IL1RAP mAb; VH SEQ ID NO:8, VL SEQ ID NO:24, κ light chain (antibody, V domains shown, 74804_51C10A VH; 74804_51C10A VL) VH: QVQLLQSGAEVKKPGSSVKVSCKASGGTFNIYAIDWVRQAPGQGLEWMGGIIPIFGTANSAQKFQGRVTITADKSTNTAYMELSSLRSEDTAVYYCARNGATSDAFDIWGQGTMVTVSS VL: EIVLTQSPGTLSLSPGERATLSCRASQSVSSNYLAWFQQRPGQAPRLLIYGVSRRATGIPDRFSGSGSGTDFTLTISRLEPEDFAVYYCQQYGSSPLTFGGGTKVEIK	0.000301 s⁻¹	343500 M⁻¹ s⁻¹		2.5 nM	0.000459 s⁻¹	325600 M⁻¹ s⁻¹	13 nM
74804_25H09A: anti-IL1RAP mAb; VH SEQ ID NO:9, VL SEQ ID NO:25, κ light chain (antibody, V domains shown, 74804_25H09A VH; 74804_25H09A VL) VH: QVQLVQSGAEVKKPGSSVKVSCKASGDTFSNYAITWVRQAPGQGLEWIVGFSPIFGTANYAQKFQGRVTITADKSTSTAYMELSSLISEDTAVYYCAWGSGNFNWFDPWGQGTLVTVSS VL: AIRMTQSPSSFSASTGDRVTITCRASQGISSYLAWYQQKPGKAPKLLIYAASTLQSGVPSRFSGSGSGTDFTLTISSLQSEDFATYYCQQYYSYPLTFGGGTKVEIK	0.000337 s⁻¹	154500 M⁻¹ s⁻¹		1.77 nM	0.000297 s⁻¹	142000 M⁻¹ s⁻¹	6.55 nM
74804_18L05A: anti-IL1RAP mAb; VH SEQ ID NO:4, VL SEQ ID NO:21, κ light chain (antibody, V domains shown, 74804_18L05A VH; 74804_18L05A VL) VH: QVQLVQSGAEVKKPGASVKVSCKTSGYTFTSCCMHWVRQAPGQGLEWMGIINPSVGSTSYAQKFQGIVTMTRDTSTSTVYMELSSLRSEDTAVYYCAVDSSGSRYYYGMDVWGQGTTVTVSS VL: EIVMTQSPATLSVSPGERATLSCRASQSVRSNLAWYQQRPGQAPRLLIYGTSTRATGIPARFSGSGSGTEFTLTISSLQSEDFAVYYCQQYNYWPYTFGQGTKLEIK	0.00037 s⁻¹	227800 M⁻¹ s⁻¹		1.73 nM	0.000954 s⁻¹	221100 M⁻¹ s⁻¹	4.81 nM
